This data set concerns the molecule itself. As to the kind of experiment: mass photometry; MntR alone, in the presence of 1 mM Mn2+; single peak; monomers to dimer.

B1: manganese transport regulator (MntR) from B. subtilis, wild type (natural protein)
chain: MTTPSMEDYIEQIYMLIEEKGYARVSDIAEALAVHPSSVTKMVQKLDKDEYLIYEKYRGLVLTSKGKKIGKRLVYRHELLEQFLRIIGVDEEKIYNDVEGIEHHLSWNSIDRIGDLVQYFEEDDARKKDLKSIQKKTEHHNQ
notes: MntR, manganese transport regulator, Bacillus subtilis; dimer of 142-residue subunits; the cryo-EM maps show residues 3-142; Expressed from the pSMT3 vector as a His6-SUMO fusion; the tag was cut off with ULP-1; Assayed with 1 mM Mn2+ (two Mn2+ ions per subunit); also called WT MntR; MntR2 (dimer); source: E. coli BL21(DE3)NiCo, purified (TALON, ULP-1 cleavage, Ni-NTA)
Regarding B1, the stoichiometry N – broadly, a count of units in the complex or per binding partner – is 2.

The record behind these values is PMC11275975, “Structural basis for transcription activation through cooperative recruitment of MntR” (Research Square, 2024).
